This note sets out measurements from the supplement of paper PMC5998384.

In data set [1] the test system is HeLa Kyoto. As to the kind of experiment: thermal stability score vs G1/S (z-score of summed log2 fold changes over temperatures); higher = more thermally stable than in G1/S.
In data set [2] the test system is HeLa Kyoto. In words: solubility in G1/S (NP-40 vs SDS abundance) (log2 ratio); higher = more soluble. Particulars: cell cycle stage: G1/S.
Data set [3] deals with HeLa Kyoto. In words: solubility change mitosis vs G1/S (difference of NP-40 vs SDS log2 ratios) (log2 ratio difference); higher = more soluble in mitosis.
Data set [4] concerns HeLa Kyoto. In words: melting temperature (median over replicates), in situ; higher = more thermally stable.
The mark [5] stands for this setting: cell cycle stage: early G1 (4.5 h after nocodazole release).
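For melting temperature (median over replicates), in situ in this document: HeLa Kyoto cells synchronized by double thymidine or nocodazole block, proteins quantified by TMT10plex mass spectrometry, three independent biological replicates.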
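For solubility change mitosis vs G1/S (difference of NP-40 vs SDS log2 ratios) in this document: synchronized HeLa Kyoto cells (double thymidine block for G1/S, nocodazole release for mitosis), protein amounts in NP-40 versus SDS lysates quantified by mass spectrometry, three biological replicates.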
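For solubility in G1/S (NP-40 vs SDS abundance) in this document: HeLa Kyoto cells arrested at G1/S by double thymidine block, proteins quantified by TMT10plex mass spectrometry in mild NP-40 versus SDS extracts, three biological replicates.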
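For thermal stability score vs G1/S (z-score of summed log2 fold changes over temperatures) in this document: synchronized HeLa Kyoto cells, proteins quantified by TMT10plex mass spectrometry, three biological replicates, mitosis taken 0.5 h after nocodazole release, G1/S directly after double thymidine block.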

As for “MEPAMEPETLEARINRATNPLNKELDWASINGFCEQLNEDFEGPPLATRLLAHKIQSPQEWEAIQALTVLETCMKSCGKRFHDEVGKFRFLNELIKVVSPKYLGSRTSEKVKNKILELLYSWTVGLPEEVKIAEAYQMLKKQGIVKSDPKLPDDTTFPLPPPRPKNVIFEDEEKSKMLARLLKSSHPEDLRAANKLIKEMVQEDQKRMEKISKRVNAIEEVNNNVKLLTEMVMSHSQGGAAAGSSEDLMKELYQRCERMRPTLFRLASDTEDNDEALAEILQANDNLTQVINLYKQLVRGEEVNGDATAGSIPGSTSALLDLSGLDLPPAGTTYPAMPTRPGEQASPEQPSASVSLLDDELMSLGLSDPTPPSGPSLDGTGWNSFQSSDATEPPAPALAQAPSMESRPPAQTSLPASSGLDDLDLLGKTLLQQSLPPESQQVRWEKQQPTPRLTLRDLQNKSSSCSSPSSSATSLLHTVSPEPPRPPQQPVPTELSLASITVPLESIKPSNILPVTVYDQHGFRILFHFARDPLPGRSDVLVVVVSMLSTAPQPIRNIVFQSAVPKVMKVKLQPPSGTELPAFNPIVHPSAITQVLLLANPQKEKVRLRYKLTFTMGDQTYNEMGDVDQFPPPETWGSL [GGA1]”, the thermal stability score in the data set on HeLa Kyoto [1] (setting [5]) was -0.271; in the data set with HeLa Kyoto [1] (cell cycle stage: mitosis), -0.0298. In the data set with HeLa Kyoto [2], the “solubility in G1/S (log2)” value was 0.556. Moreover, in the data set on HeLa Kyoto [3], the “solubility change mitosis (log2)” value was -0.28. Moreover, the melting temperature in the data set on HeLa Kyoto [4] (cell cycle stage: G1/S) and in the data set on HeLa Kyoto [4] (cell cycle stage: mitosis) was 51.6 °C throughout.

As to “MEPAPARSPRPQQDPARPQEPTMPPPETPSEGRQPSPSPSPTERAPASEEEFQFLRCQQCQAEAKCPKLLPCLHTLCSGCLEASGMQCPICQAPWPLGADTPALDNVFFESLQRRLSVYRQIVDAQAVCTRCKESADFWCFECEQLLCAKCFEAHQWFLKHEARPLAELRNQSVREFLDGTRKTNNIFCSNPNHRTPTLTSIYCRGCSKPLCCSCALLDSSHSELKCDISAEIQQRQEELDAMTQALQEQDSAFGAVHAQMHAAVGQLGRARAETEELIRERVRQVVAHVRAQERELLEAVDARYQRDYEEMASRLGRLDAVLQRIRTGSALVQRMKCYASDQEVLDMHGFLRQALCRLRQEEPQSLQAAVRTDGFDEFKVRLQDLSSCITQGKDAAVSKKASPEAASTPRDPIDVDLPEEAERVKAQVQALGLAEAQPMAVVQSVPGAHPVPVYAFSIKGPSYGEDVSNTTTAQKRKCSQTQCPRKVIKMESEEGKEARLARSSPEQPRPSTSKAVSPPHLDGPPSPRSPVIGSEVFLPNSNHVASGAGEAEERVVVISSSEDSDAENSSSRELDDSSSESSDLQLEGPSTLRVLDENLADPQAEDRPLVFFDLKIDNETQKISQLAAVNRESKFRVVIQPEAFFSIYSKAVSLEVGLQHFLSFLSSMRRPILACYKLWGPGLPNFFRALEDINRLWEFQEAISGFLAALPLIRERVPGASSFKLKNLAQTYLARNMSERSAMAAVLAMRDLCRLLEVSPGPQLAQHVYPFSSLQCFASLQPLVQAAVLPRAEARLLALHNVSFMELLSAHRRDRQGGLKKYSRYLSLQTTTLPPAQPAFNLQALGTYFEGLLEGPALARAEGVSTPLAGRGLAERASQQS [PML]”, the thermal stability score in the data set on HeLa Kyoto [1] (setting [5]) was -0.223; in the data set on HeLa Kyoto [1] (cell cycle stage: mitosis), 2.23. In addition, the “solubility in G1/S (log2)” value with HeLa Kyoto [2] was -0.134. Moreover, the “solubility change mitosis (log2)” value in the data set with HeLa Kyoto [3] is 0.33. For the same sequence, the melting temperature amounted to 50.3 °C in the data set with HeLa Kyoto [4] (cell cycle stage: G1/S) and 50.5 °C in the data set on HeLa Kyoto [4] (cell cycle stage: mitosis).

Turning to “MEPEAPRRRHTHQRGYLLTRNPHLNKDLAFTLEERQQLNIHGLLPPSFNSQEIQVLRVVKNFEHLNSDFDRYLLLMDLQDRNEKLFYRVLTSDIEKFMPIVYTPTVGLACQQYSLVFRKPRGLFITIHDRGHIASVLNAWPEDVIKAIVVTDGERILGLGDLGCNGMGIPVGKLALYTACGGMNPQECLPVILDVGTENEELLKDPLYIGLRQRRVRGSEYDDFLDEFMEAVSSKYGMNCLIQFEDFANVNAFRLLNKYRNQYCTFNDDIQGTASVAVAGLLAALRITKNKLSDQTILFQGAGEAALGIAHLIVMALEKEGLPKEKAIKKIWLVDSKGLIVKGRASLTQEKEKFAHEHEEMKNLEAIVQEIKPTALIGVAAIGGAFSEQILKDMAAFNERPIIFALSNPTSKAECSAEQCYKITKGRAIFASGSPFDPVTLPNGQTLYPGQGNNSYVFPGVALGVVACGLRQITDNIFLTTAEVIAQQVSDKHLEEGRLYPPLNTIRDVSLKIAEKIVKDAYQEKTATVYPEPQNKEAFVRSQMYSTDYDQILPDCYSWPEEVQKIQTKVDQ [ME1]”, the values for the thermal stability score with HeLa Kyoto [1] (setting [5]) and in the data set on HeLa Kyoto [1] (cell cycle stage: mitosis) were -1.35 and -1.4, respectively. The “solubility in G1/S (log2)” value with HeLa Kyoto [2] is 0.144. In the data set with HeLa Kyoto [3], the “solubility change mitosis (log2)” value was -0.171. Further, the melting temperature with HeLa Kyoto [4] (cell cycle stage: G1/S) came to 56.5 °C; with HeLa Kyoto [4] (cell cycle stage: mitosis) it was 56.7 °C.
